Laboratory results as given in article PMC8847413.

Experiments:
[1] = biological target: prefusion-stabilized trimeric S protein (S ectodomain) of SARS-CoV-2 Delta (B.1.617.2) variant (SARS-CoV-2) (UniProt P0DTC2); experiment: BLI
[2] = biological target: prefusion-stabilized S protein (S trimer) of SARS-CoV-2 G614 variant (SARS-CoV-2) (UniProt P0DTC2); experiment: BLI

human ACE2 peptidase domain (PD), sequence (Q9BYF1 17-615): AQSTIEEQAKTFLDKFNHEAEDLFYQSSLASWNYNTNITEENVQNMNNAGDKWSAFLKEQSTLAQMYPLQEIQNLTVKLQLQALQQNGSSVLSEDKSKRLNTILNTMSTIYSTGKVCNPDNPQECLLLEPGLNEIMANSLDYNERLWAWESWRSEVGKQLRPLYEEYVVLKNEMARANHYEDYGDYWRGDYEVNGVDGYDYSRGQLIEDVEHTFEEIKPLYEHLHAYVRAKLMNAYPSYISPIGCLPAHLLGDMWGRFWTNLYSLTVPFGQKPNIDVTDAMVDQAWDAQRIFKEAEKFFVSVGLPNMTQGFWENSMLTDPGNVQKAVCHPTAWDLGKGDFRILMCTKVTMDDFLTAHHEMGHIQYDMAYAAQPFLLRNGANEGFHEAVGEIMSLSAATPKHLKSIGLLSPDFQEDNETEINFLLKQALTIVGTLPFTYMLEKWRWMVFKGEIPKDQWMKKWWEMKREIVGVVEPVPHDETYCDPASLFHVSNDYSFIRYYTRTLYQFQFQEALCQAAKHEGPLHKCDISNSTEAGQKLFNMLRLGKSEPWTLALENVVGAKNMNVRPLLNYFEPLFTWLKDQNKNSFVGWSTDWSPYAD

Q: Which results are given for “human ACE2 peptidase domain (PD) (from UniProt Q9BYF1) (domain or fragment)”?
A: Kd [1]: 41 nM; Kd [2]: 87 nM
